Reference: publication doi:10.1101/2025.06.18.660434

Target: GST-fusion RACK1 (UniProt P63244)
Assay: pull-down

- Kd: 32 nM
Substance: His-tagged PKAcα (from UniProt P17612 1-351) (enzyme)
